Legend:
Assay in all cases: holdup assay
Parameters in all cases: key: below the threshold = too weak to quantify, mostly under pKd 3.1 to 4
Inadl_5, Q8NI35 = target: Inadl_5, Q8NI35
FRMPD2_3, Q68DX3 = target: FRMPD2_3, Q68DX3
LIN7A, O14910 = target: T1, LIN7A, O14910
T1 sequence (O14910 103-200, limits assumed, looked up): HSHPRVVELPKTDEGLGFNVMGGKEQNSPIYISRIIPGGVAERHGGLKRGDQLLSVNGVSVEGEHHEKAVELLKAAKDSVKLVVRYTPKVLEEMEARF

PDLIM1, O00151 = target: PDLIM1, O00151
DLG4_1, P78352 = target: DLG4_1, P78352
FRMPD2_2, Q68DX3 = target: FRMPD2_2, Q68DX3
MAST1, Q9Y2H9 = target: MAST1, Q9Y2H9
Inadl_4, Q8NI35 = target: Inadl_4, Q8NI35
TJP2_1, Q9UDY2 = target: TJP2_1, Q9UDY2
MAGI3_2, Q5TCQ9 = target: MAGI3_2, Q5TCQ9
SCRIB_3, Q14160 = target: SCRIB_3, Q14160
LRRC7, Q96NW7 = target: T2, LRRC7, Q96NW7
T2 sequence (Q96NW7 1440-1537, limits assumed, looked up): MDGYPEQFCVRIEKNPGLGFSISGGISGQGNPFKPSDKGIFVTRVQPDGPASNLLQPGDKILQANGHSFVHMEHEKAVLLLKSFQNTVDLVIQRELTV

MPDZ_10, O75970 = target: T3, MPDZ_10, O75970
T3 sequence (O75970 1624-1722, limits assumed, looked up): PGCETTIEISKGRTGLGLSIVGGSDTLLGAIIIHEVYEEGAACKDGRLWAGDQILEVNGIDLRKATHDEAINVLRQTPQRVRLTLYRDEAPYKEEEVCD

MAGI1_1, Q96QZ7 = target: MAGI1_1, Q96QZ7
DLG3_1, Q92796 = target: T4, DLG3_1, Q92796
T4 sequence (Q92796 125-227, limits assumed, looked up): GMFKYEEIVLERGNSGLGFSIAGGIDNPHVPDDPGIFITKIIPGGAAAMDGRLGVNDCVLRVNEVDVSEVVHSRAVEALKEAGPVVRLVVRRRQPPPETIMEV

SIPA1L2, Q9P2F8 = target: T5, SIPA1L2, Q9P2F8
T5 sequence (Q9P2F8 945-1036, limits assumed, looked up): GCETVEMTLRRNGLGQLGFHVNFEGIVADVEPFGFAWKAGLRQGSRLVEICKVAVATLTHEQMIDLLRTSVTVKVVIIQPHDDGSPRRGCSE

LNX1_3, Q8TBB1 = target: LNX1_3, Q8TBB1
MAGI2_4, Q86UL8 = target: MAGI2_4, Q86UL8
TJP1_2, Q07157 = target: TJP1_2, Q07157
MAGI1_2, Q96QZ7 = target: MAGI1_2, Q96QZ7
GRIP1_2, Q9Y3R0 = target: T6, GRIP1_2, Q9Y3R0
T6 sequence (Q9Y3R0 145-248, limits assumed, looked up): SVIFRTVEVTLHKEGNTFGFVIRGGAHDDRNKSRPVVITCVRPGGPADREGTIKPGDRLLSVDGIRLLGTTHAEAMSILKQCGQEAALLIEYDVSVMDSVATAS

MPP2, Q14168 = target: T7, MPP2, Q14168
T7 sequence (Q14168 180-250, limits assumed, looked up): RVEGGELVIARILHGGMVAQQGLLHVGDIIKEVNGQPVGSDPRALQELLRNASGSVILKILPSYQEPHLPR

RADIL, Q96JH8 = target: T8, RADIL, Q96JH8
T8 sequence (Q96JH8 971-1071, limits assumed, looked up): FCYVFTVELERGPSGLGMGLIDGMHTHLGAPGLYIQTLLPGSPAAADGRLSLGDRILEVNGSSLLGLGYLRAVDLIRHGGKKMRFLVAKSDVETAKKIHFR

MAGI2_6, Q86UL8 = target: MAGI2_6, Q86UL8
DLG3_2, Q92796 = target: T9, DLG3_2, Q92796
T9 sequence (Q92796 221-321, limits assumed, looked up): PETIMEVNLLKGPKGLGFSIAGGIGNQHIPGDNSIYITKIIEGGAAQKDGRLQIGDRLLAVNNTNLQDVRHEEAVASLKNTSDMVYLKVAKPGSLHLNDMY

NHERF4_4, Q86UT5 = target: NHERF4_4, Q86UT5
GRIP1_7, Q9Y3R0 = target: T10, GRIP1_7, Q9Y3R0
T10 sequence (Q9Y3R0 999-1096, limits assumed, looked up): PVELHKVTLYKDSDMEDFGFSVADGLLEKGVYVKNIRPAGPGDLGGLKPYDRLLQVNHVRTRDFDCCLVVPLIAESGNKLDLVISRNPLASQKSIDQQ

[1] = plain residues with an end cap or a label only (N-terminal biotin on a linker: ado-ado)
[2] = plain residues with an end cap or a label only (N-terminal biotin on a linker: ahx)

Measured: pKd

TJP2_1, Q9UDY2, sequence (Q9UDY2 24-128): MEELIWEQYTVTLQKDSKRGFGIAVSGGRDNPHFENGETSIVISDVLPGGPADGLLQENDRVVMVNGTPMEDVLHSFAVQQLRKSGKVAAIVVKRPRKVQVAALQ
MAGI2_4, Q86UL8, sequence (Q86UL8 772-865): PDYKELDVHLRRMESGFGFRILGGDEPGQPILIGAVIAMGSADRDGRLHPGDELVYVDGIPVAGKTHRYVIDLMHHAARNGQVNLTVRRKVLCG
MAGI1_2, Q96QZ7, sequence (Q96QZ7 456-580): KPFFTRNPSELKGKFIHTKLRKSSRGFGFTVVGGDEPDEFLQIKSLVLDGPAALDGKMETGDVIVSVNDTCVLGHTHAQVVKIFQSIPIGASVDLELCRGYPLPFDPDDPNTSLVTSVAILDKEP
TJP1_2, Q07157, sequence (Q07157 181-274): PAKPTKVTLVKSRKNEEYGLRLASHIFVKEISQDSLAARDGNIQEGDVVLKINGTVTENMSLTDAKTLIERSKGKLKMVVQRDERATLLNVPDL
DLG4_1, P78352, sequence (P78352 62-152): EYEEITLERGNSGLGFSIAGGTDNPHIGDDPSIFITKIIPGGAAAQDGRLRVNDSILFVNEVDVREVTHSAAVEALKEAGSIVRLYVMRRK
NHERF4_4, Q86UT5, sequence (Q86UT5 464-550): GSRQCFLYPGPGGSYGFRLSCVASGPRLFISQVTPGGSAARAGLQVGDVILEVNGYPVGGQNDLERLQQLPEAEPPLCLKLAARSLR
MAGI1_1, Q96QZ7, sequence (Q96QZ7 1-106): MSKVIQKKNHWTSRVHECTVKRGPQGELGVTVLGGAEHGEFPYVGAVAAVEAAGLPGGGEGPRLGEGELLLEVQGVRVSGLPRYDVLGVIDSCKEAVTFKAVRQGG
LNX1_3, Q8TBB1, sequence (Q8TBB1 500-596): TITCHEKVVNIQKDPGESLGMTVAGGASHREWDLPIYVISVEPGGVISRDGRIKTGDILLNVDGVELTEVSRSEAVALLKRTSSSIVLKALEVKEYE
Inadl_4, Q8NI35, sequence (Q8NI35 547-651): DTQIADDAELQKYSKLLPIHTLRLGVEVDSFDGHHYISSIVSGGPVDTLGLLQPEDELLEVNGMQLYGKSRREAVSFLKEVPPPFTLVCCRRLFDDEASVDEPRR
MAST1, Q9Y2H9, sequence (Q9Y2H9 962-1065): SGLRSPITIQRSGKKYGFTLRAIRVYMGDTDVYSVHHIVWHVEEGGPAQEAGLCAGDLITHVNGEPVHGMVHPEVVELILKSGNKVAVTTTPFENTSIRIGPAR
MAGI3_2, Q5TCQ9, sequence (Q5TCQ9 398-503): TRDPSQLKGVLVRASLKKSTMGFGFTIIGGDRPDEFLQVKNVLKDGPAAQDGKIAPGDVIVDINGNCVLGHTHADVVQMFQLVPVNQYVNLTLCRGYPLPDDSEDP
Inadl_5, Q8NI35, sequence (Q8NI35 673-780): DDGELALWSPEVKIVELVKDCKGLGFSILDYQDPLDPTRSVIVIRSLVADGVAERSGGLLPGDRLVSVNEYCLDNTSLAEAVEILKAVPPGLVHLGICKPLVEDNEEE
MAGI2_6, Q86UL8, sequence (Q86UL8 1141-1229): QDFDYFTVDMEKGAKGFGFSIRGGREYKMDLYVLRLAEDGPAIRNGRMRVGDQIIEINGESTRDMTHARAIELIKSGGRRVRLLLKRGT
FRMPD2_2, Q68DX3, sequence (Q68DX3 944-1038): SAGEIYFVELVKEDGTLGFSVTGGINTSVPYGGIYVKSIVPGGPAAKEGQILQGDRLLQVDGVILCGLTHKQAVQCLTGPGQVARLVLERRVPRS
FRMPD2_3, Q68DX3, sequence (Q68DX3 1073-1166): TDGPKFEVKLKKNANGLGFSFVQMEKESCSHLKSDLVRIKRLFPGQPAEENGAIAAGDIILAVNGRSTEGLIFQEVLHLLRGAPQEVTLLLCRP
PDLIM1, O00151, sequence (O00151 1-87): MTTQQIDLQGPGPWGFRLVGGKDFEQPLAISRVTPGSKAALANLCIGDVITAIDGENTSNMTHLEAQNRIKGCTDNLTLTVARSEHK
SCRIB_3, Q14160, sequence (Q14160 999-1103): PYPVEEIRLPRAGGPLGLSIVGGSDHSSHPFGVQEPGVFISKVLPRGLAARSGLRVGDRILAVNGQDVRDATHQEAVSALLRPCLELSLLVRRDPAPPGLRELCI

PDSYHRRDFW [U2AF2, P26368]
3.69: MPP2, Q14168; [1]
3.72: TJP1_2, Q07157; [1]
3.54: MAGI2_4, Q86UL8; [1]
3.56: TJP2_1, Q9UDY2; [1]
3.49: MAST1, Q9Y2H9; [1]
below the threshold: Inadl_5, Q8NI35; [1] | FRMPD2_3, Q68DX3; [1] | LIN7A, O14910; [1] | PDLIM1, O00151; [1] | FRMPD2_2, Q68DX3; [1] | Inadl_4, Q8NI35; [1] | MAGI3_2, Q5TCQ9; [1] | SCRIB_3, Q14160; [1] | LRRC7, Q96NW7; [1] | MPDZ_10, O75970; [1] | MAGI1_1, Q96QZ7; [1] | DLG3_1, Q92796; [1] | SIPA1L2, Q9P2F8; [1] | LNX1_3, Q8TBB1; [1] | MAGI1_2, Q96QZ7; [1] | GRIP1_2, Q9Y3R0; [1] | RADIL, Q96JH8; [1] | MAGI2_6, Q86UL8; [1] | DLG3_2, Q92796; [1] | NHERF4_4, Q86UT5; [1] | GRIP1_7, Q9Y3R0; [1]
3.62: DLG4_1, P78352; [1]

KDECVIATEV [DLL1, O00548]
3.93: DLG4_1, P78352; [2]
below the threshold: Inadl_5, Q8NI35; [2] | FRMPD2_3, Q68DX3; [2] | LIN7A, O14910; [2] | PDLIM1, O00151; [2] | Inadl_4, Q8NI35; [2] | TJP2_1, Q9UDY2; [2] | MAGI3_2, Q5TCQ9; [2] | LRRC7, Q96NW7; [2] | MAGI1_1, Q96QZ7; [2] | DLG3_1, Q92796; [2] | SIPA1L2, Q9P2F8; [2] | LNX1_3, Q8TBB1; [2] | TJP1_2, Q07157; [2] | MAGI1_2, Q96QZ7; [2] | GRIP1_2, Q9Y3R0; [2] | MPP2, Q14168; [2] | NHERF4_4, Q86UT5; [2] | GRIP1_7, Q9Y3R0; [2]
4.52: DLG3_2, Q92796; [2]
3.64: MAGI2_4, Q86UL8; [2]
4.38: MAST1, Q9Y2H9; [2]
3.99: FRMPD2_2, Q68DX3; [2]
3.48: MPDZ_10, O75970; [2]
4.55: MAGI2_6, Q86UL8; [2]
4.11: SCRIB_3, Q14160; [2]
3.61: RADIL, Q96JH8; [2]

— publication PMC9482650, “Quantitative fragmentomics allow affinity mapping of interactomes” (Nature Communications, 2022)
